The source of these data is patent US20240245805A1 (Orna Therapeutics, Inc., priority 2020, published 2024).

The labels stand for the following.
B1: Feline infectious peritonitis virus (nucleic acid)
chain: ACTTTTAAAGTAAAGTGAGTGTAGCGTGGCTATAACTCTTCTTTTACTTTAACTAGCCTTGTGCTAGATTTGTCTTCGGACACCAACTCGAACTAAACGAAATATTTGTCTCTCTATGAAACCATAGAAGACAAGCGTTGATTATTTCACCAGTTTGGCAATCACTCCTAGGAACGGGGTTGAGAGAACGGCGCACCAGGGTTCCGTCCCTGTTTGGTAAGTCGTCTAGTATTAGCTGCGGCGGTTCCGCCCGTCGTAGTTGGGTAGACCGGGTTCCGTCCTGTGATCTCCCTCGCCGGCCGCCAGGAGA
modifications: lipid formulation; source: /note="Description of Unknown: Feline infectious peritonitis virus sequence"
B2: Hubei tombus-like virus 32 (nucleic acid)
DNA: TTCGGGTTTACCCGCGTAAGCGGCCACACTGACTGGTTGTCGGTGTTGAATTTGTATACCAGATGAGGAGACGTTACCACCGTCTCGGCAGTGCTACGTCTGGGAAAGGACTGTGATAGTGGACAGTCCTACCGTCTTTAGATACATTGCGTTGTGTATAGCCCGGGAGGGATTAACTAATAGCAACGCAATGCACACGGCGGTTCGGATTTGCTTGACTGATGGAAAGACATCTAAGTTCTAATTGAACC
modifications: source: /note="Description of Unknown: Hubei tombus-like virus 32 sequence"
B3: Grapevine associated narnavirus-1 (nucleic acid, listed as Narnavirus sp.)
chain: GCCCGGGGGGTGCAGTCCTGTGAAAGGGTCTGCACCATACTATATATGTATATGATTACATCCCAAAAGGCGACTTCGTTCAGGTTTTAAATCTGACGTAGGTCCAGTAAATAAGCATGTCAAAACATGTAAGTTTATCCTGTAATCTACTCTCATAAGATGAGATAAGATGATATTGCAGTTCCCATGTAAATAAATCCATTATGAATTCATTCATATAAGGTAGAAGTGGTAACTATGGTTGAAACATTAATATAAAACGGTCATTTTGCATGAACGTCATTAAGGAACTGGCATACCAATGTCTATTTAGTGACTATGATATTTAGAGTATCCCTTATATTAATTAACAATTATTCCTTTTAGCATATCATCCGACAACAAATTTTAAAAGAAGAAATATTACTCATTAAAA
modifications: lipid formulation
B4: Human TMEV-like cardiovirus (nucleic acid, listed as Cardiovirus sp.)
DNA: TCCGACGTGGTTGGAATTAACATCTTTTCCGACGAAAGTGCTATTATGCCTCCCCGATTGTGTGATGCTTTCTGCCCTGCTGGGCGGAGCGTCCTCGGGTTGAGAAACCTTGAATCTTTTCCTTTGGAGCCTTGGCTCCCCCGGTCTAAGCCGCTTGGAATATGACAGGGTTATTTTCCAAACTCTTTATTTCTACTTTCATGGGTTCTATCCATGAAAAGGGTATGTGTTGCCCCTTCCTTCTTTGGAGAATCTGCGCGGCGGTCTTTCCGTCTCTCAACAGGCGTGGATGCAACATGCCGGAAACGGTGAAGAAAACAGTTTTCTGTGGAAATTTAGAGTGGACATCGAAACAGCTGTAGCGACCTCACAGTAGCAGCGGATTCCCCTCTTGGCGACAAGAGCCTCTGCGGCCAAAAGCCCCGTGGATAAGATCCACTGCTGTGAGCGGTGCAACCCCAGCACCCTGGTTCGATGGCCATTCTCTATGGAACCAGAAAATGGTTTTCTCAAGCCCTCCGGTAGAGAAGCCAAGAATGTCCTGAAGGTACCCCGCGCGCGGGATCTGATCAGGAGACCAATTGGCAGTGCTTTACGCTGCCACTTTGGTTTAAAAACTGTCACAGCTTCTCCAAACCAAGTGGTCTTGGTTTTCCAATTTTGTTGACTGACAAT
B5: Goat torovirus (nucleic acid, listed as Torovirus sp.)
chain: GTACTTACAAGCGGGTTAAACCGCCCTCCGGAACGGTTACAACCCCCTCCCGAACGTGCGCTTGACGTGACTGGTTCTCAGTCTGGCTTTCTGAGAAATACTCCAGGGTTGTATCCCACCATCTTGACCTCTGGTCATTTTGGTAACACCATAACCAAACAAACTCTACACACCTAACCCACCTCCAGCTTGCTGCAGGCCTTTTGGACTAAACGGGTTTAGGTGTTTTGTGACCAACTCGTCTACCCACCTCCAGTTTTACTGCAGGCCTTTTTGGACTAAACGGCTTTAGACTTTTGTGGTTAGTTTTTAACTACCCACTGTTTAGCCGCCAACCTGATTTTCATTGTTGTAAAATTTTGTGTTTATACACTATTTTCATACGGTTGGCAGTTTGTTTGGTTGTTTGCACAGTTTTTGTTGATACCAATTTTTACTGTGCTTTTAGTGTATTCTGCTAAGGCTGTATTTTACATACTTAGTTTGGTTGAAGCAATTTTTACAACATTTATATTGTTTTTGATTTCTAAGGTAAAGAGTCTTAGGAAACACCATAGACGCCATTCTTGTGGTGTCTAGTTCCAACTAATCTGGCAAACAAGTACCAAGTCATTGACTCACTTTGGAGTGAGACTTACGAGTACCAATTTGCCTATTTCGGACATCCATATAAAG
modifications: lipid formulation
B6: Hubei tombus-like virus 9 (nucleic acid)
DNA: GGACCATCCAGGCAGGTGTAGGCTAGTACCCTCACCTGACCTGTCGCGATGTTTGGCTTTGTGAGGCTTGTGGGAGGATCCCTTGGCCCATGCATTGCTGCTGTCATCGTGAAAAATGTTGTATGCTCGCACCTGGCGTGGAGGAAACGGCATTTGACGGATGCTAAGGAGGATTTGAAGGTCCTCAACTCCCATGCCTTATTACAAGTCCCCTTTCCTTCAAGCTTCGAGCCCACGTCTGTGACGAGCAGAGGTGAGGTTGGAGTCAAGAGGAGTCCTATTCAAGCTGTTCGCAGCAAGAACCATAAAACTTTCATTGCTCAATGGGCAAGAGCGGCTAAGGCTCGGTTCTCGTTTGCACGACAGTGTGAGCGGAGCCCTGTAAATGTCGCGGCCCTTCATCGGTGGTTTGCATCGGAGTTTAAGAAAATTGGCATGAACTTGCTCCAGGTTTCGTACGTGATCGATGAGGTTGTTGAACTTAGTTTGGAACCAACGTATGAGCGTATGGTGTCCGAAACTAAGAAGCAATTCCGTCATCGGGCACGTATGGAATACTACAACGAGAAAAAATGCCTTGAAAAGATCCACTAGGAACGC
modifications: source: /note="Description of Unknown: Hubei tombus-like virus 9 sequence"
B7: Hubei sobemo-like virus 3 (nucleic acid)
DNA: GAGATGTTTGCGTGGGCCGTTGCGCTGCGGGCGGCCCACCTCCCTACGGGGACCGTGAGACACCGCTGGGGAAGGCCCCCACCCCCGGCCAAGGGGATCCTGCCGAGAGGCAGGAGAAAGAGGCCCAGCCCTCTGGGGCGCCTTTAGGGGTGCCTGGGAGGGAAGTACCCGAGCCGGGCGGCCGGTCGGGTGCGGCTGTGCAGTTCGAGGCTAACCGTAAGGAAGGCCTGAGCTGCCTCGGCTTGTCGGAAAGGAAGACGAAGGCACTTATCAAGGCTTTCAGGAAGCAGGAGCGCAATTACAGCGCGCGCCGTGCGGCCTGGATTAACCGCATTTGGCCG
modifications: source: /note="Description of Unknown: Hubei sobemo-like virus 3 sequence"
B8: Farmington virus (nucleic acid)
chain: ACGACGCATAAGCAGAGAAACATAAGAGACTATGTTCATAGTCACCCTGTATTCATTATTGACTTTTATGACCTATTATTAGACCCTTCACGGGTAAATCCTTCTCCTTGCAGTTCTCGCCAAGTACCTCCAAAGTCAGAACG
modifications: lipid formulation; source: /note="Description of Unknown: Farmington virus sequence"
B9: Hubei zhaovirus-like virus 1 (nucleic acid)
DNA: GTGCAGGATGGCCTTTCCCATCTTAAGTGGTTTGTAGGATTTCGTGGGTCCATACCCCCCGATTTCTTGGTACGTATTCCATGCACGGAGAATACGACCAAAACTCTTATTTCAAAAAATATTATTTTTTACTCTTGTGGGCTGAGTGCGACCCACCAGTTCCAGCTTAGCAACCTGGAAGTTGTTGGAGATTTATGGAACCAAATTACACATGCGTGGAGTGCCGCCACTCCGTATCTGTTCACTCATTACGCGATTAAGTTCTGCGACGAGACGAGCGAA
modifications: source: /note="Description of Unknown: Hubei zhaovirus-like virus 1 sequence"
B10: Human rhinovirus 1 (nucleic acid, listed as Rhinovirus sp.)
DNA: TTAAAACTGGGTGTGGGTTGTTCCCACCCACACCACCCAATGGGTGTTGTACTCTGTTATTCCGGTAACTTTGTACGCCAGTTTTTCCCTCCCCTCCCCATCCTTTTACGTAACTTAGAAGTTTTAAATACAAGACCAATAGTAGGCAACTCTCCAGGTTGTCTAAGGTCAAGCACTTCTGTTTCCCCGGTTGATGTTGATATGCTCCAACAGGGCAAAAACAACAGATACCGTTATCCGCAAAGTGCCTACACAGAGCTTAGTAGGATTCTGAAAGATCTTTGGTTGGTCGTTCAGCTGCATACCCAGCAGTAGACCTTGCAGATGAGGCTGGACATTCCCCACTGGTAACAGTGGTCCAGCCTGCGTGGCTGCCTGCGCACCTCTCATGAGGTGTGAAGCCAAAGATCGGACAGGGTGTGAAGAGCCGCGTGTGCTCACTTTGAGTCCTCCGGCCCCTGAATGCGGCTAACCTTAAACCTGCAGCCATGGCTCATAAGCCAATGAGTTTATGGTCGTAACGAGTAATTGCGGGATGGGACCGACTACTTTGGGTGTCCGTGTTTCACTTTTTCCTTTATTAATTGCTTATGGTGACAATATATATATTGATATATATTGGCATC

In the series the test system is HEK293 cells. The class given is cell-based, human. Conditions: circular RNA encoding Gluc with the listed IRES (UTR truncated to 675 nt) transfected into HEK293 cells; supernatant after 24 hours.
In the case of B1, the “Expression (luminescence from secreted Gluc protein)” value (shortened to “Expression”) is 1.35E+05.

On to B2, for which the “Expression” value worked out at 9.23E+04. As for B3, the “Expression” value came out at 1.30E+05.

Turning to B4, the “Expression” value worked out at 4.48E+07. Consider B5, for which the “Expression” value worked out at 1.19E+05. Consider B6, for which the “Expression” value came out at 9.28E+04. For the molecule B7, the “Expression” value was found to be 1.17E+05.

For B8, the “Expression” value is on record as 1.22E+05. The figure for B9 is 1.03E+05. As for B10, the figure is 7.40E+07.
